Consider six molecules from publication PMC8429893, “CTP regulates membrane-binding activity of the nucleoid occlusion protein Noc” (Molecular Cell, 2021).

Substitutions are numbered along the chain they refer to. Names and notes keep the numbering of the source.

In series [1] the target is T1, Noc (N121S) (Bacillus subtilis, UniProt P37524, N121S).
T1 construct: B. subtilis Noc (N121S), His6-tagged
As to the kind of experiment: ITC. It counts as binding.

The target of series [2] is T2, Noc (nucleoid occlusion protein) (Bacillus subtilis, UniProt P37524).
T2 construct: B. subtilis Noc (WT), His6-tagged
T2 sequence (P37524 whole entry): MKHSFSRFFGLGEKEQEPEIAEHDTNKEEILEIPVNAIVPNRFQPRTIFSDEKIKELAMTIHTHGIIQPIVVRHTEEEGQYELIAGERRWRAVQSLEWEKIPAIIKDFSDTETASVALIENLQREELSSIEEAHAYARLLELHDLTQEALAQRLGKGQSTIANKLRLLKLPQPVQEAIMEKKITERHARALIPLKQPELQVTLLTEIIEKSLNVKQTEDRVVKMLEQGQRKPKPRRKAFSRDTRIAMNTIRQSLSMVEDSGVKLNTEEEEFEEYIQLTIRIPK
As to the kind of experiment: ITC. In kind it is binding.

For series [3], the target named is Geobacillus thermoleovorans NocNΔ26ΔCTD (Geobacillus thermoleovorans). Briefly: crystal structure; G. thermoleovorans NocNΔ26ΔCTD, premixed with 1 mM CTPγS and 1 mM MgCl2 (no nucleotide in the density), 2.95 Å, space group C222(1), one copy per asymmetric unit; dimer with a symmetry mate.
Series [4] has as its target T3, Noc (R89A) (Bacillus subtilis, UniProt P37524 1-283, R89A).
T3 sequence: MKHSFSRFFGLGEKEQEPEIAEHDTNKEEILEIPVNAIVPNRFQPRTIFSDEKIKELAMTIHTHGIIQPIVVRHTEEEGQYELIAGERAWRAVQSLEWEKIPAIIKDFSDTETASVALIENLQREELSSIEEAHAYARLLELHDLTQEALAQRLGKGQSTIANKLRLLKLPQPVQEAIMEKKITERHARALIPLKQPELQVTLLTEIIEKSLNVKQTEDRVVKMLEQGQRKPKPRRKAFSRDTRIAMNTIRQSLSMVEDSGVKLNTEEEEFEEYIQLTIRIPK
Briefly: BLI; 1 mM CTP; nucleates, does not spread; BLI: 100 mM Tris-HCl pH 8.0, 150 mM NaCl, 1 mM MgCl2, 0.005% Tween 20, 22 C; 1 uM Noc dimer +/- 1 mM NTP. To be noted: protein: recombinant; tags: C-terminal His6; chain copies: 2; label: biotin on both ends; blunt. (In general: BLI is a label-free optical method that tracks binding on a fibre tip over time.)

Series [5] deals with T4, Noc (N121S) (Bacillus subtilis, UniProt P37524 1-283, N121S).
T4 sequence: T3 sequence with A89R, N121S
The series is described as above. The settings on record: protein: recombinant; tags: C-terminal His6; chain copies: 2; label: biotin on both ends; blunt.

The target in series [6] is T5, Noc (Bacillus subtilis, UniProt P37524 1-283).
T5 sequence: T3 sequence with A89R
Briefly: BLI; 1 mM CTP; BLI: 100 mM Tris-HCl pH 8.0, 150 mM NaCl, 1 mM MgCl2, 0.005% Tween 20, 22 C; 1 uM Noc dimer +/- 1 mM NTP. To be noted: protein: recombinant; tags: C-terminal His6; chain copies: 2; label: biotin on both ends; blunt.

Series [7] deals with T5, Noc. As to the kind of experiment: BLI; 1 uM Noc; 1 mM CTP; BLI: 100 mM Tris-HCl pH 8.0, 150 mM NaCl, 1 mM MgCl2, 0.005% Tween 20, 22 C; 1 uM Noc dimer +/- 1 mM NTP. The settings on record: protein: recombinant; tags: C-terminal His6; chain copies: 2; label: biotin on both ends; blunt.
Series [8] addresses T5, Noc. Briefly: BLI; 1 mM CTP; no increase beyond nucleation; BLI: 100 mM Tris-HCl pH 8.0, 150 mM NaCl, 1 mM MgCl2, 0.005% Tween 20, 22 C; 1 uM Noc dimer +/- 1 mM NTP. To be noted: protein: recombinant; tags: C-terminal His6; chain copies: 2; label: biotin at M13F end; 5' overhang 4 nt (GATC) at BamHI end.
Series [9] deals with the molecule itself. As to the kind of experiment: cross-linking; BMOE (1 mM) cysteine crosslinking of 10 uM Noc variant ± 1 mM NTP ± 1 uM 22 bp NBS/parS DNA; 10 mM Tris-HCl pH 7.4, 200 mM NaCl, 1 mM MgCl2; 10 min at 22°C; SDS-PAGE, Coomassie, band quantification; reads self-engagement of the N-terminal domain.

T1 sequence (P37524 whole entry N121S): as the sequence (P37524 whole entry) above, with N121S counted along it

Broadly, the Kd is the free concentration of one partner at which half of the binding sites on the other are occupied at equilibrium, for simple one-to-one binding. Take `Nc1ccn([C@@H]2O[C@H](COP(=O)(O)OP(=O)(O)OP(O)(O)=S)[C@@H](O)[C@H]2O)c(=O)n1` [CTPɣS]: the Kd is 232 ± 66 µM in [1] and 68 ± 23 µM in series [2]. What is called stoichiometry N is the number of molecules, sites or subunits per partner or assembly. The molecule “Geobacillus thermoleovorans NocNΔ26ΔCTD (domain or fragment)” yielded a stoichiometry N in [3] of 2.

B1: 170 bp NBS DNA, closed (dsDNA)
DNA 1: CGCCAGGGTTTTCCCAGTCACGACGTTGTAAAACGACGGCCAGAATTCGCAACGTGTATTTCCCGGGAAATAGCCTTGAACTGATAACGACTCTATCATTGATAGAGTGTTCTCTCCACGGGATCCCCAGGCATGCAAGCTTGGCGTAATCATGGTCATAGCTGTTTCCT
DNA 2: AGGAAACAGCTATGACCATGATTACGCCAAGCTTGCATGCCTGGGGATCCCGTGGAGAGAACACTCTATCAATGATAGAGTCGTTATCAGTTCAAGGCTATTTCCCGGGAAATACACGTTGCGAATTCTGGCCGTCGTTTTACAACGTCGTGACTGGGAAAACCCTGGCG
For the molecule B1, the binding result in series [4] and in series [5] was “binds” throughout. Moreover, the binding signal in series [6] was ~6 fold BLI response vs no CTP.

B2: 170 bp parS DNA, closed (dsDNA)
DNA 1: B1 DNA 1 with A58G, C63A, G66T, T71C
DNA 2: B1 DNA 2 with A100G, C105A, G108T, T113C
For B2, in series [7], the binding result is “no binding”.

B3: 170 bp NBS DNA, BamHI-cut (open) (dsDNA)
DNA 1: CGCCAGGGTTTTCCCAGTCACGACGTTGTAAAACGACGGCCAGAATTCGCAACGTGTATTTCCCGGGAAATAGCCTTGAACTGATAACGACTCTATCATTGATAGAGTGTTCTCTCCACGG
DNA 2: GATCCCGTGGAGAGAACACTCTATCAATGATAGAGTCGTTATCAGTTCAAGGCTATTTCCCGGGAAATACACGTTGCGAATTCTGGCCGTCGTTTTACAACGTCGTGACTGGGAAAACCCTGGCG
As for B3, the binding result in series [8] is “binds”.

B4: B. subtilis NocNΔ10 (E29C) (domain or fragment, Bacillus subtilis, UniProt P37524 11-283, looked up)
chain: LGEKEQEPEIAEHDTNKECILEIPVNAIVPNRFQPRTIFSDEKIKELAMTIHTHGIIQPIVVRHTEEEGQYELIAGERRWRAVQSLEWEKIPAIIKDFSDTETASVALIENLQREELSSIEEAHAYARLLELHDLTQEALAQRLGKGQSTIANKLRLLKLPQPVQEAIMEKKITERHARALIPLKQPELQVTLLTEIIEKSLNVKQTEDRVVKMLEQGQRKPKPRRKAFSRDTRIAMNTIRQSLSMVEDSGVKLNTEEEEFEEYIQLTIRIPK
Take B4: in series [9], the binding result is given as “binds”.
